From PMC4067148 (Biochemistry, 2014)
Residue numbers refer to the chain shown, from its start. Names may count otherwise.

Legend:
native gel or EMSA [1] = target: the molecule itself; assay: native gel or EMSA
native gel or EMSA [2] = target: the molecule itself; assay: native gel or EMSA; remark: listed apart in the source

B1: AcrB_(L886G/E893G/W895G) (natural protein, Escherichia coli)
chain: MPNFFIDRPIFAWVIAIIIMLAGGLAILKLPVAQYPTIAPPAVTISASYPGADAKTVQDTVTQVIEQNMNGIDNLMYMSSNSDSTGTVQITLTFESGTDADIAQVQVQNKLQLAMPLLPQEVQQQGVSVEKSSSSFLMVVGVINTDGTMTQEDISDYVAANMKDAISRTSGVGDVQLFGSQYAMRIWMNPNELNKFQLTPVDVITAIKAQNAQVAAGQLGGTPPVKGQQLNASIIAQTRLTSTEEFGKILLKVNQDGSRVLLRDVAKIELGGENYDIIAEFNGQPASGLGIKLATGANALDTAAAIRAELAKMEPFFPSGLKIVYPYDTTPFVKISIHEVVKTLVEAIILVFLVMYLFLQNFRATLIPTIAVPVVLLGTFAVLAAFGFSINTLTMFGMVLAIGLLVDDAIVVVENVERVMAEEGLPPKEATRKSMGQIQGALVGIAMVLSAVFVPMAFFGGSTGAIYRQFSITIVSAMALSVLVALILTPALCATMLKPIAKGDHGEGKKGFFGWFNRMFEKSTHHYTDSVGGILRSTGRYLVLYLIIVVGMAYLFVRLPSSFLPDEDQGVFMTMVQLPAGATQERTQKVLNEVTHYYLTKEKNNVESVFAVNGFGFAGRGQNTGIAFVSLKDWADRPGEENKVEAITMRATRAFSQIKDAMVFAFNLPAIVELGTATGFDFELIDQAGLGHEKLTQARNQLLAEAAKHPDMLTSVRPNGLEDTPQFKIDIDQEKAQALGVSINDINTTLGAAWGGSYVNDFIDRGRVKKVYVMSEAKYRMLPDDIGDWYVRAADGQMVPFSAFSSSRWEYGSPRLERYNGLPSMEILGQAAPGKSTGEAMELMEQLASKLPTGVGYDWTGMSYQERLSGNQAPSLYAISLIVVFGCLAALYGSGSIPFSVMLVVPLGVIGALLAATFRGLTNDVYFQVGLLTTIGLSAKNAILIVEFAKDLMDKEGKGLIEATLDAVRMRLRPILMTSLAFILGVMPLVISTGAGSGAQNAVGTGVMGGMVTATVLAIFFVPVFFVVVRRRFSRKNEDIEHSHTVDHH
Native gel or EMSA [1]
  stoichiometry N: 3
Native gel or EMSA [2]
  KX (trimer association constant, mole fraction): 1e+07

B2: AcrB_(E893G) (natural protein, Escherichia coli)
chain: B1 chain with G886L, G895W
Native gel or EMSA [1]
  stoichiometry N: 3
Native gel or EMSA [2]
  KX (trimer association constant, mole fraction): 3.2e+09
